B1: GST/III1H,8,10 (other)
chain: IQWNAPQPSHISKYILRWRPKNSVGRWKEATIPGHLNSYTIKGLKPGVVYEGQLISIQQYGHQEVTRFDFTTTSTSTAVPPPTDLRFTNIGPDTMRVTWAPPPSIDLTNFLVRYSPVKNEEDVAELSISPSDNAVVLTNLLPGTEYVVSVSSVYEQHESTPLRGRQKTVSDVPRDLEVVAATPTSLLISWDAPAVTVRYYRITYGETGGNSPVQEFTVPGSKSTATISGLKPGVDYTITVYAVTGRGDSPASSKPISI
notes: Coated on tissue culture plastic in the assays; also called FNIII1H,8,10; not shown: glutathione S-transferase (GST) tag encoded by vector pGEX-2T (Amersham Biosciences)
B2: GST/III1H,8^RGD (other)
chain: IQWNAPQPSHISKYILRWRPKNSVGRWKEATIPGHLNSYTIKGLKPGVVYEGQLISIQQYGHQEVTRFDFTTTSTSTAVPPPTDLRFTNIGPDTMRVTWAPPPSIDLTNFLVRYSPVKNEEDVAELSISPSDNAVVLTNLLPGTEYVVSVSSVYGRGDSPASSTPLRGRQKT
notes: Coated on tissue culture plastic in the assays; also called FNIII1H,8^RGD; not shown: glutathione S-transferase (GST) tag encoded by vector pGEX-2T (Amersham Biosciences)

Experiments:
Human plasma fibronectin = biological target: T1, Human plasma fibronectin (human, UniProt P02751 32-2477, Alexa^488 label where used as FN^488); assay: Alexa488-fibronectin added to cell-free wells coated with 400 nM mimetic; fluorescence after 20 h
T1 construct: Used coated on plastic at 10 nM, or soluble at 10 µg/ml, unlabeled or Alexa488-labeled; also called full-length fibronectin; FN
T1 sequence (P02751 other isoform, or with tags, fused parts or gaps): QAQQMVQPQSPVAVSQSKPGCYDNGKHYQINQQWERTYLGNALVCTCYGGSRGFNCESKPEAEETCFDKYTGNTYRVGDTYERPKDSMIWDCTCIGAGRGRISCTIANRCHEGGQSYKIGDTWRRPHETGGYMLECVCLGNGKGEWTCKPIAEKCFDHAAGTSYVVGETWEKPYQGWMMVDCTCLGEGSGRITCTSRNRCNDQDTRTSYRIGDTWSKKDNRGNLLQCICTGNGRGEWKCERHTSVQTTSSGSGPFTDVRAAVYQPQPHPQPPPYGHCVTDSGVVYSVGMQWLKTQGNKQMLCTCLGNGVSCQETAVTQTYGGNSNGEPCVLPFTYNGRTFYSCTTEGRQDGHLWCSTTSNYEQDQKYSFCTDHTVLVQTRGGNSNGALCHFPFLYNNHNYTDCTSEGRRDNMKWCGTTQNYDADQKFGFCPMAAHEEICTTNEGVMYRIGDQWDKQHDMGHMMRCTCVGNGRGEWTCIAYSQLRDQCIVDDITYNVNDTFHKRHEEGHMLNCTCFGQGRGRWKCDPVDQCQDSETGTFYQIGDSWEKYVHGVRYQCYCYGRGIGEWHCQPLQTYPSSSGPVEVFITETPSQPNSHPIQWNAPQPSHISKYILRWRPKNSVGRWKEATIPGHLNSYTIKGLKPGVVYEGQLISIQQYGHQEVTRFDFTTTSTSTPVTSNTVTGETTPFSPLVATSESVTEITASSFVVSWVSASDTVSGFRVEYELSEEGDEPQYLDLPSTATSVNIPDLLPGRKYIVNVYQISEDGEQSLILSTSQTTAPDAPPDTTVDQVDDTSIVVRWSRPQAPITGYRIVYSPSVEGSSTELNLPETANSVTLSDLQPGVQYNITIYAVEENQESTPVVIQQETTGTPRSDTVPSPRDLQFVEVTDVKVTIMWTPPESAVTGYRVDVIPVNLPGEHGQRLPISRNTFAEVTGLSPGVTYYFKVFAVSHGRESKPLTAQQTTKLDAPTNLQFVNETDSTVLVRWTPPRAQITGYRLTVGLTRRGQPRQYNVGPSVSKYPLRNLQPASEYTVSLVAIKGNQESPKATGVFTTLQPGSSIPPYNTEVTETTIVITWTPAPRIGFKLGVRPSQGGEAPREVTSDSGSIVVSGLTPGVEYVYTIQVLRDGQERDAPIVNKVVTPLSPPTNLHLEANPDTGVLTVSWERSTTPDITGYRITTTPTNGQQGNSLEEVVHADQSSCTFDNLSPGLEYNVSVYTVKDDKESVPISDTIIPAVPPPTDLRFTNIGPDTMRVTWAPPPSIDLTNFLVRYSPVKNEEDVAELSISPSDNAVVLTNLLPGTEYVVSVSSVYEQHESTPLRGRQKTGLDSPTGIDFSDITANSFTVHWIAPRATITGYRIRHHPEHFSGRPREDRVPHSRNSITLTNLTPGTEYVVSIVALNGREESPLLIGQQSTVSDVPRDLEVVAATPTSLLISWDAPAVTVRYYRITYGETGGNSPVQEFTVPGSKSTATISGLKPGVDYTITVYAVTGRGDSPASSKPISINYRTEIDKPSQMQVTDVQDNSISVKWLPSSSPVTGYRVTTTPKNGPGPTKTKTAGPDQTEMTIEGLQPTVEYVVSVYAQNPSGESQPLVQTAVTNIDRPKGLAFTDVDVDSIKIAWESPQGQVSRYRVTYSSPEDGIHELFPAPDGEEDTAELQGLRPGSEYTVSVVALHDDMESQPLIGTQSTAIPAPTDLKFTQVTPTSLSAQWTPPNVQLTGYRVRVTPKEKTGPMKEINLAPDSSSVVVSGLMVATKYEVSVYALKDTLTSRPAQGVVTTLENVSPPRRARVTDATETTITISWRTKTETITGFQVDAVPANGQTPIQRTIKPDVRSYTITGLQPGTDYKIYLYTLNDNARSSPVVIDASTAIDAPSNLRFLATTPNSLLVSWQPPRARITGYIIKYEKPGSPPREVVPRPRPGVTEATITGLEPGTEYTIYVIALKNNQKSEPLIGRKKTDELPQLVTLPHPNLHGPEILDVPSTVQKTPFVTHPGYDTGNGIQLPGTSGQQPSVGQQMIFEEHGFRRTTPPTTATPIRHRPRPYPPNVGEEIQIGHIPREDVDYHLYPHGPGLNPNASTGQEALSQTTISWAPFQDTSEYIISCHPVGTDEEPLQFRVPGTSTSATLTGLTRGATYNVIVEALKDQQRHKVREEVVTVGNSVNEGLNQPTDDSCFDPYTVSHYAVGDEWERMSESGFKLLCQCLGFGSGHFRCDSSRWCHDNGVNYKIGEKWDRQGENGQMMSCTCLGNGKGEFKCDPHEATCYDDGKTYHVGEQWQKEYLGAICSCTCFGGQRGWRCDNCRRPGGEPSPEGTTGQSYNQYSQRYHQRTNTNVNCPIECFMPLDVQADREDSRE

[1] = biological target: T2, FITC-labeled type I collagen (rat, UniProt P02454 152-1207; P02466 86-1125, FITC label); assay: FITC-collagen I added to cell-free, fibronectin-free wells coated with 400 nM mimetic; fluorescence after 20 h
T2 construct: also called FITC-collagen I; collagen I
T2 sequence (P02454 152-1207, chain 1 of 2): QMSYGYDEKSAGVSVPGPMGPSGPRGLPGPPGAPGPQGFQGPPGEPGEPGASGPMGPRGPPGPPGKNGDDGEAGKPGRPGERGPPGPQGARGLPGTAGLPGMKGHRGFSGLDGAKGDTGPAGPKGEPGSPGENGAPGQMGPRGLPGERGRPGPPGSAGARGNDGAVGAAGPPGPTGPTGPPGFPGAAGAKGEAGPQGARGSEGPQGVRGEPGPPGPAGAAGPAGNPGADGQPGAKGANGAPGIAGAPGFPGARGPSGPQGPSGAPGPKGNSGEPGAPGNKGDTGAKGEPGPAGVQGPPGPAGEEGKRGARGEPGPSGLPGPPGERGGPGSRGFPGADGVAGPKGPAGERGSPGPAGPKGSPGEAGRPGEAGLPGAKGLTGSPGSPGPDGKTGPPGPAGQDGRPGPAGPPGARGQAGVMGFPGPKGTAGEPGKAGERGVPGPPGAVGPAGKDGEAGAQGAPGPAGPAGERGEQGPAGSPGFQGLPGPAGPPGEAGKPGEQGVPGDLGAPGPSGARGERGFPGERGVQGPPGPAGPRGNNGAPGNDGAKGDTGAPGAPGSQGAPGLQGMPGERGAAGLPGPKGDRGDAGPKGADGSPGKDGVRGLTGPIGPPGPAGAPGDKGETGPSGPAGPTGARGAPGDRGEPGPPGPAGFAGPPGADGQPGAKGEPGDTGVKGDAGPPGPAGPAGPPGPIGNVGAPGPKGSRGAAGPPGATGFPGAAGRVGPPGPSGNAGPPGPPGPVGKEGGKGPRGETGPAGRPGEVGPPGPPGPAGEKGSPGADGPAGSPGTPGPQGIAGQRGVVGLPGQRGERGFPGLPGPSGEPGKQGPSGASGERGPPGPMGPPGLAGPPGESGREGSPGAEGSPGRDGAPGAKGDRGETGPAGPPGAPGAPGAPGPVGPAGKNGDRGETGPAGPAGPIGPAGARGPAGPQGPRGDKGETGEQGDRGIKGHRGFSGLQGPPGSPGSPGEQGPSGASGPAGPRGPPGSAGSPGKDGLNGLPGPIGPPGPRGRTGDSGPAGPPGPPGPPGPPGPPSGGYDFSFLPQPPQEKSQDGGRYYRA
T2 sequence (P02466 86-1125, chain 2 of 2): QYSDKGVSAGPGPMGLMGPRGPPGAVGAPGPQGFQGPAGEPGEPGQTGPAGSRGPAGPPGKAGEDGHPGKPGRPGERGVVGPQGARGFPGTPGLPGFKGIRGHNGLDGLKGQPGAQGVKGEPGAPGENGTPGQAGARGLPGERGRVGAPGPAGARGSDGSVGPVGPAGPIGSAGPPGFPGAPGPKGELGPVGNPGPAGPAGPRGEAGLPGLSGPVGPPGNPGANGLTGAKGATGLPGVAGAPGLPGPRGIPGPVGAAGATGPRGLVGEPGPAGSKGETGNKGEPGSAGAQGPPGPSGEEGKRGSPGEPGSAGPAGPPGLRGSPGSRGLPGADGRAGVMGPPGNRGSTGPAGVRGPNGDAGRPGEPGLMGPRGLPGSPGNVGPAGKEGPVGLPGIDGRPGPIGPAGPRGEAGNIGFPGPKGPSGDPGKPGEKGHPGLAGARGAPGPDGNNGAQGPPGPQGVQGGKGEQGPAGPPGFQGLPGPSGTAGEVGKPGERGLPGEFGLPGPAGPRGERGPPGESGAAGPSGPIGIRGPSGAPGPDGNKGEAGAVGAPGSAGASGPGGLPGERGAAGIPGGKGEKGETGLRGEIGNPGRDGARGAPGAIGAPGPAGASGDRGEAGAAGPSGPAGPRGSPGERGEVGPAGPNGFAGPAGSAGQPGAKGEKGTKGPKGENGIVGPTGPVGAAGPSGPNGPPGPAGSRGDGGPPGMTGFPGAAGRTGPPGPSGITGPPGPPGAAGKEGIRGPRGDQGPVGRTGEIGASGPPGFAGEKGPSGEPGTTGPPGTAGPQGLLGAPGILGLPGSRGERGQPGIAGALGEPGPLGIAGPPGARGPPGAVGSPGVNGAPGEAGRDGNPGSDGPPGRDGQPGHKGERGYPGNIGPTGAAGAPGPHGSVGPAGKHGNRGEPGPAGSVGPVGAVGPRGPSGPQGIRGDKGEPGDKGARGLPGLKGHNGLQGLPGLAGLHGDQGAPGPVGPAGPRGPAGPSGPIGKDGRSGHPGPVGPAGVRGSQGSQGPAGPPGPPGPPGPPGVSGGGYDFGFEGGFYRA
Method: FIGS. 14A-14C show collagen I deposition by cells adherent to matrix mimetics. FN-null MEFs were seeded (3.0×10⁴ cells/cm²) on tissue culture plates pre-coated with matrix mimetics (400 nM). Four hours after seeding, cells were treated with fibronectin (10 μg/ml) and FITC-collagen I (10 μg/ml) for 20 h. In FIG. 14A, control wells received either FITC-collagen I only (+cell, −FN) or FITC collagen I in the absence of both cells and fibronectin (−cells, −FN). […] In FIG. 14B, cells were processed for immunofluorescence microscopy and stained using an antibody against fibronectin. Images represent 1 of 3 experiments. Bar=10 μm. Four hours after seeding, cells were treated with fibronectin (10 μg/ml) and FITC-collagen I ([…]) in the presence of either R1R2 (250 nM) or FNIII11C (250 nM).
The deposition of collagen I into the ECM is dependent on the co-assembly of a fibronectin matrix (Sottile et al., “Fibronectin Polymerization Regulates the Composition and Stability of Extracellular Matrix Fibrils and Cell-Matrix Adhesions,” Mol. Biol. Cell. 13(10):3546-3559 (2002), which is hereby incorporated by reference in its entirety). […] FITC-collagen I deposition was quantified 20 h after fibronectin and collagen addition.

[2] = biological target: T3, α5β1 integrin on mouse embryonic fibronectin-null fibroblasts (mouse, UniProt P11688 45-1053; P09055 21-798); assay: immunofluorescence of α5 integrin clustering in FN-null MEFs adherent for 4 h to coated substrate
T3 construct: whole, on cells; Endogenous integrin on FN-null MEFs; also called α5β1 integrins; a5β1 integrin
Method: FIGS. 16A-16C show substrate-dependent ligation and clustering of α5β1 integrins. FN-null MEFs were seeded at a density of 2.5×10³ cells/cm² (FIG. 16A) or 3×10⁴ cells/cm² (FIG. 16B) onto tissue culture plates precoated with 400 nM of the various fibronectin matrix mimetics or 10 nM full-length fibronectin and allowed to adhere and spread for 4 h. In FIG. 16A, cells were processed for immunofluorescence microscopy and stained using antibodies against α5 integrin and vinculin. Images represent 1 of 3 experiments. Bar=10 μm. In FIG. 16B, cell surface proteins bound to the adhesive substrates were cross-linked using bis(sulfosuccinimidyl)suberate (BS³). Unbound proteins were extracted and […]. α5 integrins were analyzed by immunoblotting.
The preceding Examples therefore indicate that upon adhesion to GST/III1H,8-10, α5β1 integrins preferentially engage the adhesive substrate instead of soluble fibronectin, thus inhibiting the initiation of the matrix assembly process. To assess α5β1 integrin clustering in response to substrate adhesion, FN-null MEFs were allowed to adhere and spread for 4 h on plates pre-coated with saturating densities of matrix mimetics in the absence of soluble fibronectin. α5β1 integrins were visualized by immunofluorescence microscopy. […]

| Binder | binding result (Human plasma fibronectin) | binding result [1] | binding result [2] |
| --- | --- | --- | --- |
| B1 | no binding (tested: 10 µg/ml) | no binding (tested: 10 µg/ml) | – |
| B2 | no binding (tested: 10 µg/ml) | no binding (tested: 10 µg/ml) | no binding (tested: 400 nM coating) |

Source: patent publication US20150283214A1 (UNIVERSITY OF ROCHESTER, published 2015)
